Positions of bridges follow the written chain, without caps; N, C: chain ends. Non-standard residues stand in square brackets, D forms with d. Groups on a side chain read outwards from the residue. int‑CC7 = mannose-6-phosphonate M6PR ligand; tri‑GalNAc ASGPR ligand = not defined here; Bip = N[C@@H](Cc1ccc(-c2ccccc2)cc1)C(=O)O; NMeF = CN[C@@H](Cc1ccccc1)C(=O)O; Tic = O=C(O)[C@@H]1Cc2ccccc2CN1; int‑CC6 = not defined here; NMeA = CN[C@@H](C)C(=O)O; Sar = CNCC(=O)O
B1: Bifunctional compound (BFC-14) (other)
peptide: {CH2CO}-FK([dPEG9 diacid-tri‑GalNAc ASGPR ligand])[NMeA]SLHW[NMeA]RPDRCG-NH2
modifications: thioether N-13; reading uncertain
B2: Bifunctional compound (BFC-17) (other)
peptide: {CH2CO}-FR[NMeF]SVNY[Sar]RK([dPEG9 diacid-tri‑GalNAc ASGPR ligand])[Tic]N[NMeF]CG-NH2
modifications: thioether N-14; reading uncertain
B3: Cyclic peptide compound (C13) (peptide)
peptide: {CH2CO}-FK[NMeA]SLHW[NMeA]RPDRCG-NH2
modifications: thioether N-13
SMILES: CC(C)C[C@@H]1NC(=O)[C@H](CO)NC(=O)[C@H](C)N(C)C(=O)[C@H](CCCCN)NC(=O)[C@H](Cc2ccccc2)NC(=O)CSC[C@@H](C(=O)NCC(N)=O)NC(=O)[C@H](CCCNC(=N)N)NC(=O)[C@H](CC(=O)O)NC(=O)[C@@H]2CCCN2C(=O)[C@H](CCCNC(=N)N)NC(=O)[C@H](C)N(C)C(=O)[C@H](Cc2c[nH]c3ccccc23)NC(=O)[C@H](Cc2c[nH]cn2)NC1=O
notes: Synthetic cyclic peptide; also called FHR3 receptor ligand compound (C13)
B4: Cyclic peptide compound (C15) (peptide)
peptide: {CH2CO}-F[NMeF][NMeA]SLHW[NMeA]RKDRCG-NH2
modifications: thioether N-13
notes: also called FHR3 receptor ligand compound (C15)
B5: Cyclic peptide compound (C14) (peptide)
peptide: {CH2CO}-FR[NMeF]SVNYKRS[Tic]N[NMeF]CG-NH2
modifications: thioether N-14
SMILES: CC(C)[C@@H]1NC(=O)[C@H](CO)NC(=O)[C@H](Cc2ccccc2)N(C)C(=O)[C@H](CCCNC(=N)N)NC(=O)[C@H](Cc2ccccc2)NC(=O)CSC[C@@H](C(=O)NCC(N)=O)NC(=O)[C@H](Cc2ccccc2)N(C)C(=O)[C@H](CC(N)=O)NC(=O)[C@@H]2Cc3ccccc3CN2C(=O)[C@H](CO)NC(=O)[C@H](CCCNC(=N)N)NC(=O)[C@H](CCCCN)NC(=O)[C@H](Cc2ccc(O)cc2)NC(=O)[C@H](CC(N)=O)NC1=O
notes: Synthetic cyclic peptide; also called FHR3 receptor ligand compound (C14)
B6: Cyclic peptide compound (C16) (peptide)
peptide: {CH2CO}-FR[NMeF]SVNY[Sar]RK[Tic]N[NMeF]CG-NH2
modifications: thioether N-14
SMILES: CC(C)[C@@H]1NC(=O)[C@H](CO)NC(=O)[C@H](Cc2ccccc2)N(C)C(=O)[C@H](CCCNC(=N)N)NC(=O)[C@H](Cc2ccccc2)NC(=O)CSC[C@@H](C(=O)NCC(N)=O)NC(=O)[C@H](Cc2ccccc2)N(C)C(=O)[C@H](CC(N)=O)NC(=O)[C@@H]2Cc3ccccc3CN2C(=O)[C@H](CCCCN)NC(=O)[C@H](CCCNC(=N)N)NC(=O)CN(C)C(=O)[C@H](Cc2ccc(O)cc2)NC(=O)[C@H](CC(N)=O)NC1=O
notes: Synthetic cyclic peptide; also called FHR3 receptor ligand compound (C16)
B7: Cyclic peptide compound (C12) (peptide)
peptide: {CH2CO}-FR[NMeF]SKNY[Sar]RD[Tic]N[NMeF]CG-NH2
modifications: thioether N-14; also: classes: D-residues
notes: Synthetic cyclic peptide with non-natural residues; also called FHR3 receptor ligand compound (C12)
B8: Cyclic peptide (C5) (peptide)
peptide: {CH2CO}-FVPTT[Bip][NMeA][Bip][NMeA]EAPCGK(4‑oxopentanoyl)-NH2
modifications: thioether N-13
notes: also called PCSK9 ligand (C5); PCSK9 receptor ligand compound (C5)
B9: Bifunctional compound (BFC-4) (other)
peptide: {CH2CO}-FVPTT[Bip][NMeA][Bip][NMeA]EAPCGK-NH2
modifications: thioether N-13; not fully specified (residue 15); also: int-DD2 linker joined by two oximes to int-CC7
B10: Bifunctional compound (BFC-2) (other)
peptide: {CH2CO}-FVPTT[Bip][NMeA][Bip][NMeA]EAPCGK([4‑formylbenzoyl-int‑CC6])-NH2
modifications: thioether N-13; reading uncertain; also: 4-formylbenzoyl joined to int-CC6 as oxime
B11: Bifunctional compound (BFC-9) (other)
peptide: {CH2CO}-FVPTT[Bip][NMeA][Bip][NMeA]EAPCGK([Lys(4-oxopentanoyl)-int‑CC7])-NH2
modifications: thioether N-13; not fully specified; also: further groups not given here
notes: BFC-8 and BFC-9 come from the same reaction of int-DD6 with int-CC7
B12: Bifunctional compound (BFC-8) (other)
peptide: {CH2CO}-FVPTT[Bip][NMeA][Bip][NMeA]EAPCGK([Lys(4-oxopentanoyl)-int‑CC7])-NH2
modifications: thioether N-13; not fully specified; also: further groups not given here
notes: as for B11

Biological target: T1, Purified FHR3 with C-terminal biotinylated Avitag (human, UniProt Q02985 19-330, biotin on the C-terminal Avitag)
T1 construct: Immobilised on a NeutrAvidin NLC chip for SPR; also called complement factor H-related protein 3; hFHR3; not shown: C-terminal biotinylated Avitag
T1 sequence (looked up): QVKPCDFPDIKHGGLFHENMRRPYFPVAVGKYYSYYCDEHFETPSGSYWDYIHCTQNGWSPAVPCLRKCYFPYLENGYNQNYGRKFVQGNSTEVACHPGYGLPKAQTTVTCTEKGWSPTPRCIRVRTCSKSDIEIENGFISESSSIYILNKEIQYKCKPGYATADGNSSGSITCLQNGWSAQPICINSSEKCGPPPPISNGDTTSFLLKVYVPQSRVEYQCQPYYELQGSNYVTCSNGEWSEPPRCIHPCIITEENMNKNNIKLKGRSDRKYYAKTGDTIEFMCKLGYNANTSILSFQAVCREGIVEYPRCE
Assay: SPR, ProteOn XPR36; biotinylated FHR3 on NeutrAvidin NLC chip
Description: SPR was used to obtain the binding data for FHR3 receptor ligands compounds (C12), (C13), (C14), (C15) and (C16), either alone or as part of the bifunctional compounds (BFC13), (BFC14), (BFC15), (BFC16) and (BFC17), respectively.
(§1) SPR Binding experiments were performed on a Proteon XPR36 instrument (Bio-Rad Laboratories). Purified FHR3 with C-terminal biotinylated Avitag was used for the assay. Biotinylated FHR3 was incubated with fivefold molar excess of bifunctional compounds (BFC13), (BFC14), (BFC15), (BFC16) or (BFC17), or compounds (C12), (C13), (C14), (C15) or (C16), and immobilized onto a Neutravidin coated sensor chip. (NLC chip, Bio-Rad Laboratories, Inc). After conditioning the chip by injecting running buffer (20 mM Tris pH7.5, 300 mM NaCl, 25 mM CaCl₂, 2 mM betamercaptoethanol, 2% DMSO and 0.05% Tween-20) at a flow rate of 0.1 mL/min for 240 s, FHR3 was injected at a protein concentration of 0.02 mg/ml in running buffer with fivefold molar excess of bifunctional compound and a flow rate of 0.03 mL/min followed by 4 washes with running buffer with 1 μM of bifunctional compound (0.1 mL/min for 60 seconds each).

B1 and B2 are within 1.5-fold of each other in Kd: 80 nM for the first, 55 nM for the second.

Going from B3 to B4, the Kd falls from 48 nM to 15 nM (3.2-fold).

First: B5
Second: B6
The Kd of the first is 12-fold higher: 162 nM for the first, 13 nM for the second. The second binds more tightly here.

B7 was tested, and the Kd was 8 nM.

Biological target: T2, Purified recombinant full length human PCSK9 with C-terminal biotinylated Avitag (human, UniProt Q8NBP7 31-692, biotin on the C-terminal Avitag)
T2 construct: also called hPCSK9; proprotein convertase subtilisin/kexin type 9; not shown: C-terminal biotinylated Avitag
Assay: SPR, ProteOn XPR36; biotinylated human PCSK9 on NeutrAvidin NLC chip
Description: SPR was used to obtain the binding data for PCSK9 receptor ligand compound (C5), either alone or as part of the bifunctional compounds (BFC1), respectively.
as §1, with “Purified recombinant full length human PCSK9” for “Purified FHR3”, “Biotinylated human PCSK9” for “Biotinylated FHR3”, “bifunctional compound (BFC1)” for “bifunctional compounds (BFC13), (BFC14), (BFC15), (BFC16)”, “or compound (C₅),” for “or (BFC17), or compounds (C12), (C13), (C14), (C15) or (C16),”, “s, PCSK9 protein” for “s, FHR3”

T2 sequence (Q8NBP7 31-692): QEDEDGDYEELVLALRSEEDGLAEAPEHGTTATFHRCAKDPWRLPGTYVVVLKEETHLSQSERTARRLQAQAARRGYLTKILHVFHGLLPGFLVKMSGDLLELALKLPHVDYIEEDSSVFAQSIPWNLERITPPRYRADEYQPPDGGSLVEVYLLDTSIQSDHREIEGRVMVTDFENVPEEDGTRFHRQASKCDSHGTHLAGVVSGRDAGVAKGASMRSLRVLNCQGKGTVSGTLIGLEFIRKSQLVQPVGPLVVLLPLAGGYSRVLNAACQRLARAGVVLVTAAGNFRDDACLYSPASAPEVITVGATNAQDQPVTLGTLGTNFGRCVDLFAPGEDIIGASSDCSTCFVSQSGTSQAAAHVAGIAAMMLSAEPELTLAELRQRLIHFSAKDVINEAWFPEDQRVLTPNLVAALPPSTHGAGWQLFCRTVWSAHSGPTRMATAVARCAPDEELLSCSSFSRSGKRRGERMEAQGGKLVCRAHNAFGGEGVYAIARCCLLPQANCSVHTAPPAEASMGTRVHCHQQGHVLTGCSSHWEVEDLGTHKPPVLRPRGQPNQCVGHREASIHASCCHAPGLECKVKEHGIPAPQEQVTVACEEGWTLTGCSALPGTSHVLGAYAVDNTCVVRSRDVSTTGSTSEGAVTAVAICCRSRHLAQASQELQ

First: B8
Second: B9
The Kd of the first is 3.4-fold lower: 1.2 nM for the first, 4.1 nM for the second. The first binds more tightly here.

In the case of B10, the Kd is reported as 9.2 nM.

Biological target: T3, M6PR
T3 construct: also called mannose-6-phosphate receptor; M6P receptor
Assay: SPR, no details given; binding is through the mannose phosphonate moiety of the conjugate

Compared with B9, B11 is 1.5-fold higher in Kd: 110 nM for the first, 170 nM for the second.

B12 was tested, and the Kd was 480 nM.

Biological target: T3, M6PR
Assay: SPR, no details given; binding is through the mannose-6-phosphate moiety of the conjugate

With B10 the Kd was 7.19 nM.
